From the DeepSol protein solubility set

Test: soluble on expression in E. coli; label from the status in PepcDB or PDB records

Sequence | soluble on expression in E. coli
MSLQRFNQRVWMMFGEFNLIDKYFSNRQAQRKDVHLALGDDCAIVKVPENSRVAISTDTLVAGTHFLAQANPAWVAHKALASNISDLAAMGATPAWVSLALTLPEIDDAWLTPFCDAFFELAKYYNVQLIGGDTTKGPLSITLTVQGFLPKEQAMLRSGAKVGDWLYVTGDLGDSQAGLDVILDPEKRHLPFADILEQRHYLSTPRIVAGQALVHLASSAIDISDGLIADLQHILRRSNVGASIDVSLLPLSKELLQFVDSVTSAQQYALTSGEEYELCFTIPEENRGSLENALAHCGTKVTCIGQIRPAGTFELHNQGKKLDWQLAGYDHFKVKAEGHHHHHH | soluble
MGSDKIHHHHHHMISRTIQQLEDALGQQLFYRNTRAITPTESGKLFFEYAKRITEQFDEAQKALQDKTIEPSGLVRINAPVFFGQRHIAPWLAGLSERYPRLLIELIQTDEFIDPLRESTDLIFRIGALTDSSFHARIFGTQKYHLAASPQYVAKYGTLDHPTELNQHKCLVYKGFEGPNRWLVRKPNEEWVHYPITPLLSSNNAESLMTAALHSMGIVLFPDWLIGEALKKGDLIKLLPEYEVAIKSPPQHIAAIYPNVRHPPLNIRAVIDYFAEIYGDTPYWQN | not soluble
MEAKEKKYGEIEIEKAQLEAWPNPNPERDYMIEITFPEFTCLCPRSGYPDFATIKIRYIPDKYIVELKSLKLWLNKFRNRYISHEAATNEIYQALYDLLKPRFLEVVGDFHPRGNVHTVVRVRSDENYGAAAAAALEHHHHHH | soluble
MGSDKIHHHHHHVKQRVAVIGAGPGGLACAMLLAGRGIDVTVYEKQPIVGGRTSRVQVGDYQFDRGPTFLNMPHILENLFTSIDLDMKDYLDLKALDPMYTLYFNGGKDHFTMTTDRDRMKQTIEQHFPGNGEGYDRFMAEQALKLAKLMPILQTKHDKLTDYLSPRVITALPRLSLGRSLYDVLSDYFTSEELKYAFTFQAKYLGMSAWECPGGFSILSYMEHAYGVHHPIGGMNQIPEAMKRAVEELGGTVHLNTGISQLILDGTTATGVILESGEHVLYDDVVVGADFAHAMNHLVPEGVLKKWSRPKIDRKKFSCSTFMLYLGVNKSFDAPHHTIYFADDYEKNVREMTQTLELSDDFSFYVQNPSIIDSTLAPEGKSSLYVLVPVPNNYSELDWAIEGPKLRRRVLDALEHRSPYTGVEAAIEVEEMFTPDDWEAMGVHQGATFNLGHQLTQMMYFRPHNRFEELEHVYLVGGGTHPGSGLPTIFESARITADLLTSEVGVGK | not soluble
MLVLFEVAAGYAVFKLSNEKKLKNVDNIWEEFSTAEKAQENLQLVSFKKFKTTAGAVEATSEITEGKLSKTLKKLLKSSVDETEKLAVGDAKLGNLIKEKLSLNCVHDSSINELMRGVRAHIEDLLAEHKEEMNAMNLAVAHSLARYKVKFNPEKIDTMIVQAVSLLDDLDKELNNYVMRVREWYGWHFPELGKTIQDHQAYAKIIKAIGMRQNCINTDLSSILPEELEEKVKEDAEISMGTDISDIDLIHIKGLCDQVIELSAYRAQLFDYLKNRMTALAPNLTVLLGELVGARLISHAGSLVSLAKAPASTIQILGAEKALFRALKTKKDTPKYGLIYHAQLITQAPPKVKGKMARKLAAKCSLATRIDALSDESATNEIGIECRAALENVLRTESERGPSKNKSFGSHRHDKYEFKSETYEYDASADTPASRKHKRFDDNEESTNAIKKMKIEEVKEEDEAEPEKKKKKKEKKAKKADTDSDEE | not soluble
MSTRLCEPSLRDDGAQRGTPASHGKWCDTGAFKLDETPSPVVANVSSTSDASFQFNRTPSPGKHQNHAADRSMWSLDDFVIIRKLDEGRFGKVYLAREKQSKCAVVLKCISKDMIRFHSLAHQLQREVELQEYAGRYHKNVLRLFAYFWDDVRIVLVLEYADSGTLQDLLDCYREKEQRSSLPDDKVRTILLQLLSALAFLHERDIIHRDVKPDNILFHGEKLLLADFSWAVRVNNSDPRYCRRHTVCGTLDYLAPEQVLKRGCTTKADLWAVGVVAYRMLCGFLPFEMLDARDVCSCIASGAIRYPSQLSPTARHFLQGLLRVDEALRFSCQEALNHPFMRGDCNCRISNRYIESKHRARAEEPVLQHQGSFDTTKNGTRWIQQKKESWCCSRAPTLNVPEPVHHTGTNCVANHSHNHKDMDKSTTLSCPSASDIVRVRATTERVRCPVDDYSGTSASLITISPLRSTECMQSLSNVSTPSIVSQTHSEWLHSASPISHTPVVAAAATSKCSRDDVGTSSYGVSYSGIRLHNSASDGSGTTTGQHHAQLGTSTHSSFAFAPPTSARYRRDISGYHRINGRGSSPSDHEEYEVASCALRLCFDDEDDADNNCSGALHAAASNRPKTLKSGVMMNGTAPPSHHKGSSYDVR | not soluble
MSLAAPNAASGVLKLYRAYREQAQRLSDLSDLLAREGHETALSSTRLPIDEVRHVFENRPAYFHAIDAAAEELHKQLSTGDDLASGLRAWLQKNHGIVVRTLPVHAMPNLRRRYDRHSMRLFLSERLSQPDQLREMAMETCLLALREEIGTELEALGLKGEEARRIARFELARYAAHALMMPYGAFLAAAQRAKYDLDVLRSRFNVSFEQAANRLVSLQRPTTAAIPFFLMEIDNAGNRFRLAGAGGFPRARFGGLCPRLNIHAAFAQPGQVLVESVEMPDGDAFLTVSRTLEGEGHHHHHH | not soluble
MSLHPVSISLSSYGADLVRSRGQASFLPLLAMAGAQRVELREELFAGPPDTEALTAAIQLQGLECVFSSPLELWREDGQLNPELEPTLRRAEACGAGWLKVSLGLLPEQPDLAALGRRLARHGLQLLVENDQTPQGGRIEVLERFFRLAERQQLDLAMTFDIGNWRWQEQAADEAALRLGRYVGYVHCKAVIRNRDGKLVAVPPSAADLQYWQRLLQHFPEGVARAIEYPLQGDDLLSLSRRHIAALARLGQPQEERQHG | soluble
MAHHHHHHMYFLGEERHFRVLSLSFGVRGLQGSVTSEAAKIQTQMALQQTAYSACSRKVHCVSKHYLDDPFVHFFSRDMTIVNSPLMNRGTWLRTVAIERSVLSFARNWSADGPLQVISFGSGVDTLYFRLKKDHSEVNIVRYIELDFPDLVAEKQRVIEKTERLNQLVGPEYELVPCDLQKPDELREILKRVARNDVPTVLLAEMVFVYLEERTTTAILELTLNDVLKRDMCVLLIAYDAIRPNDRFGEVMVNSLASSGVPLRGIKELPTPEAHAERCKRVGLKSVMATSMRQLYLSVPQETQEWLKKLEMVDDWDEWCIMHDHYCFVLATNKAEALPTIF | not soluble
MSLITVVIIDDDPFVTKSLQTILESTKEIRVLGIGHCAKDALVLYETHRPDVLLTDIRMPKQTGIDAAKEILAKFPKAILLLLTTFKDEEYIREAFSIGVKGYLIKQNLQAIIPSVKSAYNGQAVFGNEIIETFTQMMKNKPTIDSHAYASFSERELAIIKEVAAGKNNKEIADALYLSDGTVRNYISQLLEKLDLRDRTQLAIYFYQHLQEGHHHHHH | not soluble
MGSSHHHHHHGGTGENLYFQGGSGLRQFIVPVRQTTQRAGLATPPLFGVQKCYVNMNRSVQTRWEIDSQTASQKRTEYDFDKEQWMKQMRFASMDCIMDPDITPIRYTSVAGVKKAFRRFVTMRKLMDRRPDFDPVQLKELFIHFKTLSHEKSPDCFKTLQRITTHGEADRILKEIKGRMNEDFAKKSWRSLKQQGAKSTYEMEVDSFDLVTCYMGQMSQEDWLQITYRCEFRQRESKEYDWETMMEYPVFEVRLGDGVKAPNTHPFIVVGVLKKDGTRYGKDSQDAADLRKQFDRTGRWF | not soluble
MSLVESLADLEEEKKKNILSSGNGEIDKRLGGGIPLGSLTLIEGENDTGKSVLCQQFVYGGLMSGHNIAYYTTENTIKSFLRQMESLSLDVSDFYAWGYLRVFPVHLEGIDWSTEQMRSILNLVANHIKTIRENIAIIDSLTMFTTYSTEDDVLEFLTRLKNLCDNGKTILITLHQHAFKEDTLVRIRSACDCHLFLRKEQVGDRYVSVLEVSKIRGARKTTGNIVSFEVHPGFGLKIIPVSEARAEGHHHHHH | soluble
MGSDKIHHHHHHLAIINDYWSTQAEAFTEISVDELTSEKNALWKSILKPFVQTDRKLEILDVGCGAGFFEIFLSCLGHHVTAVDFNGKMLAEARKNIEKLGRPELTKLMQMDAQNLAFQDSVFDIVISRNMTWVLENPQRAYGEWLRVLKPHGKLINFDANWFLHLRDDTARRNFEEGQAAVVEHGFELKESDHGGELDNIFRELPLSGCWRPQWDFMTLANMGCEEIAVKFSLPKGLYDEYYEQLYKAIPTFMLCAVKTG | not soluble
AIASEVSCKKRDDYLEWPEYFMAVAFLSAQRSKDPNSQVGACIVNSENKIVGIGYNGMPNGCSDDVLPWRRTAENKLDTKYPYVCHAELNAIMNKNLTDVKGCSMYVALFPCNECAKLIIQAGIKEVIFMSDKYHDSDEATAARLLFNMAGVTFRKFIPKCSKIVIDFDSINSRPSQKLQ | soluble
MSLSISEKPLSELLRPKDFEDFVGQDHIFGNKGILRRTLKTGNMFSSILYGPPGSGKTSVFSLLKRYFNGEVVYLSSTVHGVSEIKNVLKRGEQLRKYGKKLLLFLDEIHRLNKNQQMVLVSHVERGDIVLVATTTENPSFVIVPALLSRCRILYFKKLSDEDLMKILKKATEVLNIDLEESVEKAIVRHSEGDARKLLNTLEIVHQAFKNKRVTLEDLETLLGNVSGYTKESHYDFASAFIKSMRGSDPNAAVYYLVKMIEMGEDPRFIARRMIIFASEDVGLADPNALHIAVSTSIAVEHVGLPECLMNLVECAVYLSLAPKSNSVYLAMKKVQELPVEDVPLFLRNPVTEEMKKRGYGEGYLYPHDFGGFVKTNYLPEKLKNEVIFQPKRVGFEEELFERLRKLWPEKYGGESMAEVRKELEYKGKKIRIVKGDITREEVDAIVNAANEYLKHGGGVAGAIVRAGGSVIQEESDRIVQERGRVPTGEAVVTSAGKLKAKYVIHTVGPVWRGGSHGEDELLYKAVYNALLRAHELKLKSISMPAISTGIFGFPKERAVGIFSKAIRDFIDQHPDTTLEEIRICNIDEETTKIFEEKFSEGHHHHHH | soluble
MTGTLLYTKNSALDRSEESGDLSPAKEFSIGPGFLKYVLRVRNEIAAAEYDMSVPTGFEADANCDYCFEQDTCMVVSGRLDQESKAGQLGEPLPEPERAYFERLYRAIEEERREVHAEYRKLWEQSAAERADDDRALVDLDPLGREPLDGGRWALSARRTSDAVSKIREGDRVLASDGHPTQGTAELATVRHLDDEIVVVADEPFELRRIDVYPSELGVDRQLTALHDAVLRGDPDRKDVLFGRREPSFVGDHRPIIDNNESQNEAVNRALAAEDFALIHGPPGTGKTYTLAQTVQALVARGDRVLLSAFTNRAVDNAIEALEAQGFTDVLRWGSESGVRDDMQSYRFDRTGDPRERAAALRDAQVVAATTAACGSRALKQQQFDVAVIDEAGQLTEPGTFLATNRADRFVLVGDHEQLPPVVRAENDLQTSLFEQLIDDYPDAAVMLDRQYRMSQRIQYFASREFYDGQLRPANAEVASQRLADLDGVDVSTLPSALRDAVSFVDPGGSADGNTNPTEADRVADIVSAYLDAGVDPDDIGVIAPFRAQVAELSRRIDEVTVDTVDRFQGSSKEVIIVSFVATGELSSPIFEDYRRVNVALTRAKKALVLVGDATALRSVPFYERMLEWAGLEHHHHHH | not soluble
MKTQVVINAKIYTGQEVVENGFIRYAETIKEIGLMAQYVSQENETVLDAAGKIVIPGMIDVHIHGGYDIDAMDANSDGLVTLGKEMLKEGVTTYFPTTMTQAPEAIEAALHAAKEAKEKGAHFEYIHLEGPYVSKKRAGAQPLEHIVPANIEQFKQWQEASGNLIKLVTYAPEEEGALEFEQYLAETGVVGTMGHTDAIDAQLKNRNITHATHLYNQMRGLHHREPGVVGHVLLNPDVMVEVITDGIHIHPDMVKLAYKLKGPKKVSVITDAMRAKGLEDGLYELGGQPVHVKDGSARLEDGTLAGSILKMDQAFRNVIEFTGCSIEDAVLMTSVNQAEEFGLNNKGALAVGKDADFVVMNEDLHVYDTVRLGIHMKEGK | not soluble
SNAVRQVEEYIEANWMRPITIEKLTALTGISSRGIFKAFQRSRGYSPMAFAKRVRLQHAHNLLSDGATPTTVTAAALSCGFSNLGHFARDYRDMFGEKPSETLQRARP | soluble
